According to patent US20120156198A1 (Hoffmann-La Roche, published 2012):

How the values were obtained:
Experiment in all cases: ELISA, hFc fusion protein captured on anti-human Fc
[1] = target: T1, rhIL-2Rα/hFc (R&D Systems, Cat. No. 1020-RL) (human, UniProt P01589 22-213)
T1 construct: Bought; not shown: human Fc (hFc) of the commercial protein
T1 sequence (looked up): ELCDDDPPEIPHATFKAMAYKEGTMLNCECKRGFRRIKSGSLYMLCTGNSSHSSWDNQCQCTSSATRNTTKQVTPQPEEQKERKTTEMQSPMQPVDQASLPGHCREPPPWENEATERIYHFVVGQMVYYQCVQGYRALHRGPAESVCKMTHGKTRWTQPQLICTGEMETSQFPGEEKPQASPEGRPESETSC
Description: (§1) The test was performed on 384-well microtiter plates (MaxiSorp™, Thermo Scientific Nunc, DK, Cat. No. 464718) at RT. After each incubation step, plates were washed 3 times with PBST. At the beginning, plates were coated with 0.5 μg/ml goat anti-human IgG Fc fragment (Jackson 1 mm. Res., US, Cat. No. 109-006-170) for at least 2 hours (h). Thereafter the wells were blocked with PBS supplemented with 0.2% Tween®-20 and 2% BSA (Roche Diagnostics GmbH, DE) for 1 h. 0.2 μg/ml of recombinant human IL-18Rα-Fc fusion protein (R&D Systems, UK, Cat. No. 816-LR) was captured on plate for 1 h. For testing the binding of antibodies to other proteins of the IL-1 receptor family 0.2 μg/ml of the following recombinant human proteins conjugated to human Fc (hFc) were captured: [0194] rhIL-1RI/hFc (R&D Systems, UK, Cat. No. 269-1R) [0195] rhIL-1sRII/hFc (R&D Systems, UK, Cat. No. 263-2R) [0196] rhIL-1R3/hFc (R&D Systems, UK, Cat. No. 676-CP) [0197] rhIL-2Rα/hFc (R&D Systems, UK, Cat. No. 1020-RL) [0198] rhIL-7Rα/hFc (R&D Systems, UK, Cat. No. 306-IR) [0199] rhIL-15R/hFc (R&D Systems, UK, Cat. No. 147-IR) [0200] rhST-2/hFc (R&D Systems, UK, Cat. No. 523-ST)
(§2) After washing the plate, dilutions of purified antibodies in PBS with 0.05% BSA and 0.2% Tween®-20 were incubated with the receptor proteins for 1 h. Binding of antibodies was detected with 1:2000 diluted horseradish peroxidase (HRP)-conjugates of anti-mouse IgG (GE Healthcare, UK, Cat. No. NA9310V). After 1 h the plates were washed 6 times with PBST and developed with freshly prepared BM Blue® POD substrate solution (BM Blue®: 3,3″-5,5″-Tetramethylbenzidine, Roche Diagnostics GmbH, DE, Cat. No. 11484281001) for 30 minutes at RT. Absorbance was measured at 370 nm. The values were corrected for the control without antibody.

[2] = target: T2, rhST-2/hFc (R&D Systems, Cat. No. 523-ST) (human, UniProt Q01638-2 19-328, limits assumed)
T2 construct: Bought; not shown: human Fc (hFc) of the commercial protein
T2 sequence (looked up): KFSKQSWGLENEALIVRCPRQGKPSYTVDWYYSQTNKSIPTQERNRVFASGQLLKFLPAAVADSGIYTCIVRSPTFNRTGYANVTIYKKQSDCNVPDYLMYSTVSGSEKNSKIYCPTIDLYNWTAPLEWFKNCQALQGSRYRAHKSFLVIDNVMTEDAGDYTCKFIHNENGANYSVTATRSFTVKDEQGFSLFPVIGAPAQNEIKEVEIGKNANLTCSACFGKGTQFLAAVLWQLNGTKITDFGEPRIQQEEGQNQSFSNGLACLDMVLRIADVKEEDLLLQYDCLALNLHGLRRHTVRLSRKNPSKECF
Description: as §1, §2

[3] = target: T3, rhIL-1R3/hFc (R&D Systems, Cat. No. 676-CP) (human, UniProt Q9NPH3 21-359, limits assumed)
T3 construct: Bought; not shown: human Fc (hFc) of the commercial protein
T3 sequence (looked up): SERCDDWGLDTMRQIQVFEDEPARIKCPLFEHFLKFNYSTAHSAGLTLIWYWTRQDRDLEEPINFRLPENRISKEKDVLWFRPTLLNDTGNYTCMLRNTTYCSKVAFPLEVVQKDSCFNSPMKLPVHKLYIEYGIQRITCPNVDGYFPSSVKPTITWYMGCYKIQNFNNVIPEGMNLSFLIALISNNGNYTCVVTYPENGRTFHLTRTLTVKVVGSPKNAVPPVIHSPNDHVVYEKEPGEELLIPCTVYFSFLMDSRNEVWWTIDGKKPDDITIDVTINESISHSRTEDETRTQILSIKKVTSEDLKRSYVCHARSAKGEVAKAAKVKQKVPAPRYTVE
Description: as §1, §2

Measured: absorbance at 370 nm (corrected for the control without antibody)

B1: Mab 2D11 (antibody, V domains shown)
VH: QVQLQQPGAELVKPGASVKMSCKASDYTFTSNWMHWVKQRPGQGLEWIGTIDPSDSYTYYNQKFKGKATLTVDTSSSTAYMHLSSLTSEDSAVYYCTTSGDYDADRYFDVWGAGTTVTVSS
VL: DIVLTQSPASLGVSLGQRATISCRASKSVSTSGDSYMHWYQQKPGQSPKLLIYLASNLESGVPARFSGSGSGTDFTLNIHPVEEEDAATYYCQQSRELPLSFGAGTKLELK
notes: Monoclonal antibody from immunized NMRI mice; detected with anti-mouse IgG1-PE / anti-mouse IgG; also called F20.2D11
0.02: all assays above
